The values that follow come from patent US20040001826A1 (published 2004).

The chains are these.
T1: mouse collagen (type III) in descending aorta sections (mouse, UniProt P08121 155-1219, limits assumed)
T1 construct: The target is tissue; also called mouse type III collagen; mouse aorta sections
T1 sequence (looked up): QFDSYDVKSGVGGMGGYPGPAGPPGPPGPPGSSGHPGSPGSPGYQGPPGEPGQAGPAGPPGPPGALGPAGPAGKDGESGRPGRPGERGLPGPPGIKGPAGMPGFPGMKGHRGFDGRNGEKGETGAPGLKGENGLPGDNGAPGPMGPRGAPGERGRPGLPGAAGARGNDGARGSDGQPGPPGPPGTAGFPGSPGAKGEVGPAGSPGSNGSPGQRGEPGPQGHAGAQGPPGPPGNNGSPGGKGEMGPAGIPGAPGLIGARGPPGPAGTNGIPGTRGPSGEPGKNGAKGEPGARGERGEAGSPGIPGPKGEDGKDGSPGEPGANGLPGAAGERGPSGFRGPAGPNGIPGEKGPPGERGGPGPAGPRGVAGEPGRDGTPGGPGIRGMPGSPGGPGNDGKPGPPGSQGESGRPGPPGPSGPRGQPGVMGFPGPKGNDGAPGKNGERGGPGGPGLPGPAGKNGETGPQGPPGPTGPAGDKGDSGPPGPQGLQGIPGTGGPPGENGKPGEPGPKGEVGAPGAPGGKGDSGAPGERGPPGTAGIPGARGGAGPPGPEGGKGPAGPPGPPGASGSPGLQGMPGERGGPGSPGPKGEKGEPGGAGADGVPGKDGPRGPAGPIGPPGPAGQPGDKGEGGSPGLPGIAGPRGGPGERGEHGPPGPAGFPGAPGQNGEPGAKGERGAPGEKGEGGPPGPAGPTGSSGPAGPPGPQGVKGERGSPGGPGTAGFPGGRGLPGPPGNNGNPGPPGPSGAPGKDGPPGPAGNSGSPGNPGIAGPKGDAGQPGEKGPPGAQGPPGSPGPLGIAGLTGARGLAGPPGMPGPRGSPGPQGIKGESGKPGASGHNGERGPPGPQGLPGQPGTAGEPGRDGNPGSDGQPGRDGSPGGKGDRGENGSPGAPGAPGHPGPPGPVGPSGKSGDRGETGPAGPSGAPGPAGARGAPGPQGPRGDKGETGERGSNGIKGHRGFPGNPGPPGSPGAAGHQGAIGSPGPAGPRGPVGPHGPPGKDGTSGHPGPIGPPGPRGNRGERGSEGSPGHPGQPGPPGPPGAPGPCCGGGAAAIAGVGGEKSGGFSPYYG

B1: human TANGO 268 (glycoprotein VI, GPVI) (receptor)
chain: QSGPLPKPSLQALPSSLVPLEKPVTLRCQGPPGVDLYRLEKLSSSRYQDQAVLFIPAMKRSLAGRYRCSYQNGSLWSLPSDQLELVATGVFAKPSLSAQPGPAVSSGGDVTLQCQTRYGFDQFALYKEGDPAPYKNPERWYRASFPIITVTAAHSGTYRCYSFSSRDPYLWSAPSDPLELVVTGTSVTPSRLPTEPPSSVAEFSEATAELTVSFTNKVFTTETSRSITTSPKESDSPAGPARQYYTKGNLVRICLGAVILIILAGFLAEDWHSRRKRLRHRGRAVQRPLPPLPPLPQTRKSHGGQDGGRQDVHSRGLCS
notes: Full-length protein: in lysates of transfected CHO cells and of human platelets (blots), on transduced U937, K562 and HEL cells, and on human platelets; Signal peptide 1-20 is a SIGNALP prediction; also called hGPVI; rhGPVI
B2: convulxin (Cvx), purified from the venom of Crotalus durissus terrificus (ligand)
chain 1: GLHCPSDWYYYDQHCYRIFNEEMNWEDAEWFCTKQAKGAHLVSIKSAKEADFVAWMVTQNIEESFSHVSIGLRVQNKEKQCSTKWSDGSSVSYDNLLDLYITKCSLLKKETGFRKWFVASCIGKIPFVCKFPPQC
chain 2: GFCCPSHWSSYDRYCYKVFKQEMTWADAEKFCTQQHTGSHLVSFHSTEEVDFVVKMTHQSLKSTFFWIGANNIWNKCNWQWSDGTKPEYKEWHEEFECLISRTFDNQWLSAPCSDTYSFVCKFEA
B3: human neurotactin conjugated to human Fc (Fc fusion, UniProt P78423 25-341, looked up)
chain: QHHGVTKCNITCSKMTSKIPVALLIHYQQNQASCGKRAIILETRQHRLFCADPKEQWVKDAMQHLDRQAAALTRNGGTFEKQIGEVKPRTTPAAGGMDESVVLEPEATGESSSLEPTPSSQEAQRALGTSPELPTGVTGSSGTRLPPTPKAQDGGPVGTELFRVPPVSTAATWQSSAPHQPGPSLWAEAKTSEAPSTQDPSTQASTASSPAPEENAPSEGQRVWGQGQSPRPENSLEREEMGPVPAHTDAFQDWGPGSMAHVSVVPVSSEGTPSREPVASGSWTPKAEEPIHATMDPQRLGVLITPVPDAQAATRRQ
notes: Negative-control Fc fusion; not shown: human Fc
B4: mouse TANGO 268 (murine GPVI) (receptor)
chain: QSGPLPKPSLQAQPSSLVPLGQSVILRCQGPPDVDLYRLEKLKPEKYEDQDFLFIPTMERSNAGRYRCSYQNGSHWSLPSDQLELIATGVYAKPSLSAHPSSAVPQGRDVTLKCQSPYSFDEFVLYKEGDTGPYKRPEKWYRANFPIITVTAAHSGTYRCYSFSSSSPYLWSAPSDPLVLVVTGLSATPSQVPTEESFPVTESSRRPSILPTNKISTTEKPMNITASPEGLSPPIGFAHQHYAKGNLVRICLGATIIIILLGLLAEDWHSRKKCLQHRMRALQRPLPPLPLA
notes: Full-length protein on retrovirally transduced FDC-P1, 32D and Ba/F3 cells; Signal peptide 1-21 is a SIGNALP prediction; also called mGPVI; rmGPVI

The target of assay [1] is baboon GPVI on baboon platelets (baboon). The assay is described as follows: flow cytometry, washed baboon platelets, FITC anti-mouse IgG; negative control. On the technique in general: In flow cytometry, cells or beads pass a laser one at a time.
The target of assay [2] is B1. The assay is described as follows: flow cytometry, washed human platelets, FITC anti-mouse IgG; negative control.
The target of assay [3] is soluble human GPVI-Fc (extracellular domain of GPVI fused to human IgG1 Fc) (human) (UniProt Q9HCN6). The assay is described as follows: SPR (BIAcore), GPVI-Fc coupled to the chip, bivalent model; negative control.
For assay [4], the target named is collagen type I. The assay is described as follows: cell-based or functional assay.
Assay [5] has as its target B2. The assay is described as follows: ligand blot with 125I-Cvx on lysates of transfected CHO cells and of platelets.
In assay [6] the target is T2, bovine serum albumin (BSA) (UniProt P02769 25-607).
T2 construct: Control surface in the cell adhesion assay
As to the kind of experiment: adhesion of 51Cr-labelled GPVI-transduced U937 cells to immobilized BSA.

Assay [7] addresses baboon GPVI on baboon platelets (baboon). As to the kind of experiment: flow cytometry, washed baboon platelets; positive control.
The target of assay [8] is B1.
Assay [9] deals with T1, mouse collagen (type III) in descending …. As to the kind of experiment: immunofluorescence on mouse descending aorta sections, anti-human Fc detection.
Description: The descending aorta was dissected and postfixed for 1.5 hours in the same fixative at room temperature. […] The descending aorta was then frozen in Tissue Tek OCT (Sakura, Tokyo, Japan). Frozen 12 micrometer cross sections of the descending aorta were cut using a cryostat (Microm, VWR, West Chester, Pa.) onto poly-1-Lysine (3 mg/ml; Sigma) coated Superfrost Plus microscope slides (VWR). Slides were stored at −80° C. until staining.
Slides containing descending aorta sections were placed at 37° C. for 6 minutes and then tissue sections were encircled with the hydrophobic substance contained in a PAP pen (RPI, Mount Prospect, Ill.). Slides were then washed 2 times for 7.5 minutes each in 0.1 M phosphate buffer, pH 6.9 (PB). Sections were then incubated for 1 hour at room temperature in a pool of solution, bordered by the hydrophobic markings, containing a 1:50 dilution of normal donkey serum (Jackson ImmunoResearch Laboratories, Inc., West Grove, Pa.) diluted with PBX. PBX is made by adding 300 microliters of Triton X-100 (Sigma) to 100 ml of 0.1M PB. Slides were than washed three times for 10 minutes each in 0.1M PB. […] Slides were then washed three times for 10 minutes each in 0.1M PB. […] Finally, slides were coverslipped using Vectashield (Vector Laboratories, Burlingame, Calif.) and the sites of GPVI binding to mouse descending aorta sections was observed using a fluorescence microscope.
For assay [10], the target named is T2, bovine serum albumin (BSA). The assay is described as follows: adhesion of 51Cr-labelled GPVI-transduced FDC-P1 cells to immobilized BSA.
Assay [11] deals with B2. As to the kind of experiment: flow cytometry, FITC-Cvx.

T2 sequence (P02769 25-607 limits assumed): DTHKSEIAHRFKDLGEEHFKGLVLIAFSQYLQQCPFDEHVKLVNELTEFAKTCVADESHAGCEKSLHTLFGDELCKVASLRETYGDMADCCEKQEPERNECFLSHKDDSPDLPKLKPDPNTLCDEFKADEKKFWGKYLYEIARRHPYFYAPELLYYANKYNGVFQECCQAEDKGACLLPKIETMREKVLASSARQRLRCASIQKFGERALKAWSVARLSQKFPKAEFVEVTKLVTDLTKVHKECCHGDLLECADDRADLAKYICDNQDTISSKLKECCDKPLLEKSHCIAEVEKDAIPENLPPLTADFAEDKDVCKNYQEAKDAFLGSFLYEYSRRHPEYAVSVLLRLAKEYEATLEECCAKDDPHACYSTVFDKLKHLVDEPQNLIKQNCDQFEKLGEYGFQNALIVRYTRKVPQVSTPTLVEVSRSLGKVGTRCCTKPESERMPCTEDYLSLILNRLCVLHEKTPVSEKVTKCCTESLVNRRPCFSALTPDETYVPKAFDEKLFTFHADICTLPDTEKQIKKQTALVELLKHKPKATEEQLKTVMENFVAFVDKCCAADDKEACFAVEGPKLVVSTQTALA

In [1], “monoclonal antibody 7H14.1 (negative control)” had a Baboon fluorescence intensity of 9 and a Baboon platelets % positive of 6.8%. In [2], the Human fluorescence intensity came to 7 and the Human platelets % positive was 1.4%.
In [1], “monoclonal antibody 7120.2 (negative control)” showed a Baboon fluorescence intensity of 10 and a Baboon platelets % positive of 9%. In addition, in [2], the Human fluorescence intensity worked out at 7 and the Human platelets % positive was found to be 1.6%. Also, the Kd in assay [3] is 210 nM.
“recombinant human soluble GPVI:Fc fusion protein (rhusGPVI:Fc) (from UniProt Q9HCN6 21-269)” displayed a concentration of rhusGPVI:Fc needed for inhibition, against that needed for Cvx in assay [4] of 10 fold.
For B1, the binding result in [5] was “binds”; in assay [6], “no binding”.
For orientation: IC50 means the midpoint of a concentration-inhibition curve. A low value points to higher potency. In assay [7], B2 had a Baboon fluorescence intensity of 72 and a Baboon platelets % positive of 95%. The molecule further came in with an IC50 in assay [8] of 4 nM.
In the case of B3, the binding result in assay [9] is “no binding”.
Consider B4, for which the binding result in [10] is given as “no binding”; in assay [11], “binds”.
